# Reference: US20220195015A1 (published 2022)
# Substitutions are numbered along the chain they refer to.
# B1: C509 (antibody, V domains shown)
# VH: QVQLQESGPGLVKPSGTLSLTCAVSGGSISSSNWWSWVRQPPGKGLEWIGEIYNSGSTNYNPSLKSRVTILVDKSKNQFSLKLSSVTAADTAVYYCAGSYSNYIGGVWFDPWGQGTLVTVSS
# VL: EIVLTQSPATLSLSPGERATLSCRASQSVSTYLAWYQQKPGQAPRLLIYDASNRATGIPARFSGSGSGTDFTLTISSLEPEDFAVYYCQQRNNWLTFGGGTKVEIK
# B2: C505 (antibody, V domains shown)
# VH: EVQLLESGGGLVQPGGSLRLSCADSGFSFSTYGMSWVRQAPGKGLEWVSTISGSGDNTYHADSVKGRFTISRDNSKNTLYLQMNSLRAEDTAVYYCAKNIAEMSTFDDYFYYYGMDVWGQGTTVTVSS
# VL: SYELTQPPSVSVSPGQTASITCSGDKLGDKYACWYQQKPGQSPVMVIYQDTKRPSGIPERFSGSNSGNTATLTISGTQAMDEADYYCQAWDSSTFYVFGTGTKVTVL
# B3: C507 (antibody, V domains shown)
# VH: EVQLVESGGGVVQPGRSLRLSCAASGFTFSSYAIHWVRQAPGKGLEWVAVISFDGSNKYYRDSVKGRFTISRDNGKNTLYLQMNSLRAEDTAVYYCAKAALGYCTNGVCYCDNWGQGTLVTVSS
# VL: NFMLTQPHSVSESPGKTVTISCTGSSGSIASNYVQWYQQRPGSAPTTVIYEDNQRPSGVPDRFSGSIDSSSNSASLSISGLKTEDEADYYCQSYDINSLWVFGGGTRLTVL
# B4: C077 (antibody, V domains shown)
# VH: QVQLVQSGAEVKKPGASVKVSCKASGYTFTSYAMHWVRQAPGQRLEWMGWINTDNGNTKYSQKFQGRVTITRDTSASTAYMELSSLRSEDTAVYYCAREGALTNWFDPWGQGTLVTVSS
# VL: SYELTQPPSVSVAPGQTARIPCGGNNIGSKSVHWYQQKPGQAPVLVVYDDSDRPSGIPERFSGSNSGNTATLTISRVEAGDEADYYCQVWDSSSDLHVVFGGGTKLTVL
# B5: C504 (antibody, V domains shown)
# VH: QVQLQESGPGLVKPSETLSLTCTVSGGSISSSYWNWIRQSPGKGLEWIGYIYYDGYTTFNPSLKSRVTISVDTSKNQFSLKLSSVTAADTAFYYCAAGLKGRSSSWYEYWGQGTLVTVSS
# VL: DIQMTQSPSSLSASVGDRVTITCRASQSISSYLNWYQQKPGKAPKLLIYATSSLQSGVPSRFSGSGSGTDFTLTITSLQPEDFATYYCQQTYSSPHTFGQGTKLEIK
# B6: C510 (antibody, V domains shown)
# VH: QVQLQQWGAGLLKPSETLSRTCAVYGGSFSGYYWSWFRQSPGKGLEWIGEINHSGSTNYNPSLKNRVTISVDTSKNQFSLMLSSVTAADTAVYYCARGGFGVVINYYYSGMDVWGRGTTVTVSS
# VL: not shown
# B7: C547 (antibody, V domains shown)
# VH: QVQLVESGGGVVQPGRSLRLSCAASGFTFSSYGMHWVRQAPGKGLEWVAVISYDGSNKYYADSVKGRFTISRDNSKNTLYLQMNSLRAEDTAVYYCAKDTPGGDDILTGWGLYGMDVWGQGTTVTVSS
# VL: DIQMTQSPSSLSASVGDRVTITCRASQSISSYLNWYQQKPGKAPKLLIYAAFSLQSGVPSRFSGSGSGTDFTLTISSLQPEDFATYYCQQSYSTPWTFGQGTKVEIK
# B8: C543 (antibody, V domains shown)
# VH: B7 VH with A23T, S31T, Y32A, Y59D, N77S, A88P, L107M
# VL: B5 VL with Q37H, T51A, S52I, S67F, T76S, T85I, T91S, S94T, H96W, L104V
# B9: C073 (antibody, V domains shown)
# VH: QLQLQESGPGLVKPSETLSLTCTVSGASIPSSTSYWGWIRQPPGKGLEWIGSIYYTGSTYYNPSLKSRVTISVDTSKNHFSLILSSVTAADTAVYYCARRSITLAGRDCLDFWGQGTLVTVSS
# VL: DIQLTQSPSSLSASVGDRLTITCRASQSITTSLNWYQQKPGKAPKLLIYAASSLQSGVPSRFSGSGSGTDFTLAISSLQPEDFATYYCQQSYIPLLTFGGGTKVDIK
# B10: C091 (antibody, V domains shown)
# VH: QVQLVQSGAEVKKPGSSVKVSCKASGGTFSSYTISWVRQAPGQGLEWMGRIIPILGIANYAQKFQGRVTITADKSTSTAYMELSSLRSEDTAVYYCARDSGYSGYGSTYYMDVWGKGTTVTVSS
# VL: QSVLTQPPSVSGAPGQRVTISCTGSSSNIGAGYDVHWYQQLPGTAPKLLIYGNSNRPSGVPDRFSGSKSGTSASLAITGLQAEDEADYYCQSYDSSLSGSVFGTVTKVTVL
# B11: C092 (antibody, V domains shown)
# VH: B10 VH with T28S, S30T, S31N, Y32H, T33F, I57T, K63N, T69M, I70M
# VL: B10 VL with S26N, T44A, S54N, G70D, A82V, G99D, T104S, V105G
# B12: C540 (antibody, V domains shown)
# VH: EVQLVESGGGLVQPGGSLRLSCAASGFTFRNYDMHWVRQVAGKGLEWVSAIGTSGDTYYPDSVKGRFTISRENAKNSVYLQMNNLRAGDTAVYFCVRDREISGWTGWYFDLWGRGTLVTVSS
# VL: DIQMTQSPSSLSASVGDRVTITCRASQTIHNYLNWYQQIPGKAPRLLIYATNTLQSGVPSRFSGSGSGTDFTLTITGLQPEDFATYYCQQSYSTPPITFGQGTRLEIK
# B13: C539 (antibody, V domains shown)
# VH: EVQLVESGGGLVQPGRSLRLSCAASGFTFDDYALHWVRQAPGKGLEWVSGISWNGDSIGYADSVKGRFTISRDNAKNSLSLQMNSLTAEDTALYYCAKGVEYSSSSNCDYWGQGTLVTVSS
# VL: DIQMTQSPSSVSASVGDRVTITCRASQDISSWLAWYQQKPGKAPKLLISLASGLQSGVPSRFSGSGSETDFTLTISSLQPEDFATYYCQQTNSFPLTFGGGTKVEI
# B14: C080 (antibody, V domains shown)
# VH: EVQLVQSGAEVKKPGESLNISCKASGYSFTIYWIAWVRQLPGKGLEWMGIIYPGDSDTRYSPSFQGQVTISADKSISTAYLQWRSLKASDSAVYYCARGVAVDWYFDLWGRGTLVTVSS
# VL: QSVLTQPPSVSGAPGQRVTISCAGSSSNIGAGFDVYWYQQLPGTAPKLLIYGNNNRPSGVPDRFSGSKSGTSASLAITGLQAEDEADYYCQSSGSVLSDLYVFGTGTKVTVL
# B15: C213 (antibody, V domains shown)
# VH: EVQLVESGGGLVKPGGSLRLSCAASGFTFSSYSMNWVRQAPGKGLEWVSSISSSSSYIYYADSVKGRFTISRDNAKNSLYLQMNSLRAEDTAVYYCARVQVGARGWVDYWGQGTLVTVSS
# VL: NFMLTQPHSVSESPGKTVTISCTRSSGSIASNYVQWYQQRPGSAPTTVIYEDNERPSGVPDRFSGSIDSSSNSASLTISGLKTEDEADYYCQSYDRINWVFGGGTKLTVL
# B16: C217 (antibody, V domains shown)
# VH: B15 VH with S50F, S54R
# VL: B15 VL with E54Q, R96S
# B17: C563 (antibody, V domains shown)
# VH: EVQLVESGGGLVKPGGSLRLSCAASGFPFTNAWMSWVRQAPGKGLEWVGHIKDYTDGGTTDYAAPVKGKFTISRDDSKNTLYLHMNSLKTEDTAVYYCSTVGSYYYDSRGPTSDAFDIWGQGTLVTVSS
# VL: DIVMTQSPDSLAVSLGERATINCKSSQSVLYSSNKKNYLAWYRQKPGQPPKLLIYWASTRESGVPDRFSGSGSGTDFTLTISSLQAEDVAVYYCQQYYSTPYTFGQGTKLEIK
# B18: C564 (antibody, V domains shown)
# VH: EVQLLESGGGLVQPGTSLRLSCAASGFTFSSYAMSWVRQAPGKGLEWVSAISSSGGSTYYADSVKGRFTISRDNSKNTLYLHMNSLRAEDTAVYYCATERIAVAGTRMYNWFDPWGQGTLVTVSS
# VL: DIQMTQSPSSLSASVGDRVTLTCRASQSISSYLNWYQQKPGKAPNLLIYAASSLQSGVPSRFSGSGSGTDFTLTISSLQPEDFATYYCQQSYSAPPWTFGQGTKVEIK
# B19: C506 (antibody, V domains shown)
# VH: EVQLVESGGGLVQPGGSLRLSCAASGFTFSSYDMHWVRQGTGKGLEWVSVIGTAGDAYYPGSVKGRFTISRENAKNSLYLQMNSLRAGDTAVYYCARMVYDSSGFKGYFDLWGRGTLVTVSS
# VL: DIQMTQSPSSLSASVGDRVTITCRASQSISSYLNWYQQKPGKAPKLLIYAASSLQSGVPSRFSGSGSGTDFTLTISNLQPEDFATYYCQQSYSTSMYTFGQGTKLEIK
# Experiments:
# [1] = target: SARS-CoV-2 spike receptor binding domain (RBD), S protein residues 319-539 (SARS-CoV-2, UniProt P0DTC2 319-539); test: ELISA on coated RBD
# [2] = target: SARS-CoV-2 RBD (wild type) (SARS-CoV-2, UniProt P0DTC2 319-539); test: ELISA on coated RBD
Binder,EC50 [1] [ng/mL],EC50 [2] [ng/mL]
B1,4.44,
B2,9.08,
B3,5.6,
B4,,45.9
B5,6.55,
B6,5.94,
B7,1.78,
B8,1.28,
B9,,20.6
B10,,89.5
B11,,7.07
B12,2.9,
B13,1.3,
B14,,1.97
B15,,2.02
B16,,2.28
B17,,1.19
B18,,14.6
B19,16,
